Reference: US10350158B2, “2′ fluoro-modified RNAs as immunostimulators” (DUKE UNIVERSITY, priority 2013, dated 2019)
Strand notation (5' to 3'): a small letter for the sugar, then the base; units joined by * are phosphorothioate-linked, units joined directly phosphodiester-linked; [ ] holds rarer units or linkages, { } end groups; capitals alone tell only the bases. {ppp} = triphosphate; r = 2'-OH (RNA); f = 2'-fluoro

What was measured:
[1] = target: T1, Human TLR7 (Homo sapiens, UniProt Q9NYK1); test: IL-8 production by human TLR7-expressing HEK293 cells; type: cell-based
T1 construct: expressed in transfected cells; host or cells: HEK293 (HEK-TLR7), gift of Dr. Todd Brennan, Duke University
T1 sequence (Q9NYK1 27-1049): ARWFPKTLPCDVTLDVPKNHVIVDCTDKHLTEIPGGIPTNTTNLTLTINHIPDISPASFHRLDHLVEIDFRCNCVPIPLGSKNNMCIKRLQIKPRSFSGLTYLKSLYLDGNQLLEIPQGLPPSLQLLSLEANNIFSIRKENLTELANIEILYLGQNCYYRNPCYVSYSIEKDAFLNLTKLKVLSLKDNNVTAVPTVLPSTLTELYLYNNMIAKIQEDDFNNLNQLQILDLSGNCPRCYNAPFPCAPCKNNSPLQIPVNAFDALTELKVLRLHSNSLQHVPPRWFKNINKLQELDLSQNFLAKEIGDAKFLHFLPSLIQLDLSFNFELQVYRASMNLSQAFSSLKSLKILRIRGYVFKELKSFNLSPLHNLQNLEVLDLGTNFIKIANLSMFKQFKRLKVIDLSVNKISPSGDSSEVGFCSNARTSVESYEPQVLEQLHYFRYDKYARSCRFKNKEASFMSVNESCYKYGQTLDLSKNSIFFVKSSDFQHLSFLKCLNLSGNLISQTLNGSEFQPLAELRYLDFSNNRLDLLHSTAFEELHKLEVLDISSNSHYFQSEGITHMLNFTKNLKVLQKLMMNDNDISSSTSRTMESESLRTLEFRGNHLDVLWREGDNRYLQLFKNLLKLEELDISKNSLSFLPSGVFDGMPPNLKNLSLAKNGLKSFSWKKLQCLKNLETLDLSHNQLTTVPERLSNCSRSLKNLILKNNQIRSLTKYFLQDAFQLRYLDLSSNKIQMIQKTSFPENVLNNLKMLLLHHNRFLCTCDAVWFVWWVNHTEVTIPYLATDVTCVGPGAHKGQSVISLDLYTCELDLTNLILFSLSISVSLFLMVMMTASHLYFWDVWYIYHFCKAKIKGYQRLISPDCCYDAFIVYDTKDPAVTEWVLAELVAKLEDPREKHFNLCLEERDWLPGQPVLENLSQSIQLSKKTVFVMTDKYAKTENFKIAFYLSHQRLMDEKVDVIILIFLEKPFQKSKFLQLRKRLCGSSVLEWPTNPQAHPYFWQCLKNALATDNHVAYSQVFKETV
Protocol: The human TLR3 reporter cell, HEK-hTLR3-NFκB/SEAP was purchased from Invivogen. These cells were stably co-transfected with the human TLR3 gene and an inducible SEAP (secreted embryonic alkaline phosphatase) reporter gene into HEK293 cells. The SEAP gene is placed under the control of NF-κB and AP-1. […] SEAP gene expression was measured using the SEAP detection media QUANTI-BLUE (Invivogen), according to the manufacturer's instructions. FIG. 3B is a graph showing that TLR7 is not stimulated by the ssRNAs. Human TLR7-expressing HEK293 cells were kindly provided by Dr. Todd Brennan (Duke University, Durham, N.C.). Treatment with R848 but not with polyI:C, polyI:C-DF and 5′ppp 2′F 10F-DF complexes stimulated HEK-TLR7 cells to produce the inflammatory cytokine IL-8. The data represent the mean of two experiments. Error bars represent the S.D.

[2] = test system: WM266-4 cells; type: cell-based
Protocol: For the intracellular delivery of immune stimulatory RNAs, RNAs were transfected with the DharmaFECT® Duo liposomal transfection reagent (Thermo Scientific, Waltham, Mass.) at a transfection reagent (μl):RNA (μg) ratio of 3.75:1, according to the manufacturer's instructions. Unless otherwise stated, for the induction of innate immune responses and apoptosis, immune stimulatory RNAs (500 ng/ml) were transfected into 50 to 70% confluent cells. Cells were incubated with an RNA-transfection agent complex for 5 h, followed by replenishment with fresh culture medium. To electroporate cells, 1×10^5 cells suspended in 200 μl Opti-MEM I (Invitrogen) were mixed with 1 μg of immune stimulatory RNAs or 5 μg of 2′Fluoro pyrimidine ribonucleoside triphosphate in 2-mm cuvettes and were electroporated at 300 V for 500 μs using an Electro Square Porator ECM 830 (BTX, San Diego, Calif.). For the knockdown of RNA-sensing PRRs, cells were transfected with PRR-specific siRNAs (25 nM) twice at 2-day intervals using DharmaFECT®-1 (Thermo Scientific). At 5 h after the second siRNA transfection, cells were harvested, replated into a 96-well plate and incubated overnight. Cells were then treated with immune stimulatory RNA transfections. Staurosporine (2 μM) (Sigma, St Louis, Mo.) and recombinant human IFNβ (20 ng/ml) (PeproTech, Rocky Hill, N.J.) were used as positive controls of anti-melanoma cytotoxicity. B18R (100 ng/ml) (eBioscience, San Diego, Calif.) was added directly to the growth media of cells to neutralize IFNβ.
Growth inhibition relative to untreated cells was quantified at 72 h after RNA transfection using an MTT Cell Proliferation Assay Kit (Cayman Chemicals, Ann Arbor, Mich.), according to the manufacturer's instructions. The percent growth inhibition was calculated by using the following equation: % growth inhibition=([O.D.]untreated−[O.D.]treated)/[O.D.]untreated×100. The induction of cell death was measured 48 h after RNA transfection by flow cytometry after staining with Annexin V-PE and 7-Aminoactinomycin D (7-AAD) using the PE Annexin V Apoptosis Detection Kit I (BD Biosciences, San Jose, Calif.) and analyzed using the CellQuest software (BD Biosciences).

B1: 10F: 5′ppp 2′F pyrimidine ssRNA aptamer, 71 nt, human melanocytic cell-targeting, SEQ ID NO: 4 (nucleic acid)
chain: {ppp}-rGrGrGrArGrGrAfCrGrAfUrGfCrGrGfUrAfCfCfUrGrAfCrArGfCrAfUfCfUfUrGrAfUrArAfUrGrGfUfCfCfUrAfCrGrGrArGfCfCrGfUfUfCfCrArGrAfCrGrAfCfUfCrGfCfCfCrGrA
In the case of B1, the “stimulation of HEK-TLR7 cells to produce IL-8” value [1] is reported as “not”, the “cytotoxicity, fold compared to unmodified 5′ppp RNAs” value ([2]; 5′ppp 10F variants, 72 h, MTT) is reported as “over 2 fold” and the “cell death / apoptosis of melanoma cells on co-treatment with B18R” value ([2]; B18R 100 ng/ml, type I IFN decoy receptor) is reported as “only partially rescued”. For the same molecule, the “growth inhibition / cytotoxicity (anti-melanoma effect), in words” value ([2]; liposomal transfection, 72 h, MTT) was “comparable to levels observed for the gold standard PRR-activating anti-cancer agent, polyI:C”.
